The test concerns the target T1, 人PRL蛋白 (native prolactin in pituitary tumour tissue sections) (human, UniProt P01236 29-227).
T1 construct: Endogenous protein detected by immunohistochemistry in paraffin sections of pituitary tumours; also called 催乳素
T1 sequence (looked up): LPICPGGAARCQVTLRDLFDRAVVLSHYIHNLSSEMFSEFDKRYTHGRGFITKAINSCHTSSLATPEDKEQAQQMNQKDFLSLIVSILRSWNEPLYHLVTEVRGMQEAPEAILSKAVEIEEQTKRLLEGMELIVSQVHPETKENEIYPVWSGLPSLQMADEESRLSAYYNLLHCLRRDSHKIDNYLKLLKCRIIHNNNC
As to the kind of experiment: immunohistochemistry on 9 pituitary tumour sections.

B1: 抗PRL蛋白单克隆抗体(2C10D5H11) (antibody, V domains shown)
VH: QIQLVQSGPELKKPGETVKISCKASGYSFTNSAMSWVHQAPGKGLKWMGFINTKTGEPTYVEEFRGRFVFSLETSASTAYLQINNLKNEDTATYFCAKETDNSDDYWGQGTTLTVSS
VL: QIVLTQSPAIMSASPGEMVTLTCSASSSVSSSYLYWYQQKPGSSPKLWIYSTSNLASGVPARFSGSGSGTSYSLTISSMEAEDAASYFCHQWSSYPPTFGGGTKLEIK
notes: also called anti-PRL monoclonal antibody; antibody of hybridoma CGMCC NO.22311
B1: the binding result was “binds”.

The values above are taken from patent CN113956356A (FUZHOU MAIXIN BIOTECHNOLOGY DEV CO LTD, dated 2022).
